# Data: article PMC6238537 (Life Science Alliance, 2018)
# Biological target: T1, recombinant human laminin-511 (human, UniProt O15230 36-3695; P07942 22-1786; P11047 34-1609)
# T1 construct: the FLAG tag stands just after the N-terminal signal peptide cleavage site; αβγ heterotrimer; also called LM511; not shown: FLAG, N-terminal, kept; copies: + +
# Assay: ELISA; solid-phase binding assay: 96-well plates coated with laminins at 5 nM overnight at 4°C, blocked with 3% BSA; 30 nM integrins for 3 h at room temperature with 1 mM Mn2+; bound integrins detected by biotinylated anti-Velcro pAb and HRP-streptavidin (absorbance at 490 nm)
# Settings: both partners purified
binder,measurement,value
"recombinant integrin αvβ3 (receptor, human, integrin αv subunit, human, extracellular domain; integrin β3 subunit, human, extracellular domain; truncated soluble heterodimer; vectors from Dr. Junichi Takagi (Takagi et al, 2001, 2002a, b); Purification on ANTI-FLAG gel implies a FLAG tag) chain 1: FNLDVDSPAEYSGPEGSYFGFAVDFFVPSASSRMFLLVGAPKANTTQPGIVEGGQVLKCDWSSTRRCQPIEFDATGNRDYAKDDPLEFKSHQWFGASVRSKQDKILACAPLYHWRTEMKQEREPVGTCFLQDGTKTVEYAPCRSQDIDADGQGFCQGGFSIDFTKADRVLLGGPGSFYWQGQLISDQVAEIVSKYDPNVYSIKYNNQLATRTAQAIFDDSYLGYSVAVGDFNGDGIDDFVSGVPRAARTLGMVYIYDGKNMSSLYNFTGEQMAAYFGFSVAATDINGDDYADVFIGAPLFMDRGSDGKLQEVGQVSVSLQRASGDFQTTKLNGFEVFARFGSAIAPLGDLDQDGFNDIAIAAPYGGEDKKGIVYIFNGRSTGLNAVPSQILEGQWAARSMPPSFGYSMKGATDIDKNGYPDLIVGAFGVDRAILYRARPVITVNAGLEVYPSILNQDNKTCSLPGTALKVSCFNVRFCLKADGKGVLPRKLNFQVELLLDKLKQKGAIRRALFLYSRSPSHSKNMTISRGGLMQCEELIAYLRDESEFRDKLTPITIFMEYRLDYRTAADTTGLQPILNQFTPANISRQAHILLDCGEDNVCKPKLEVSVDSDQKKIYIGDDNPLTLIVKAQNQGEGAYEAELIVSIPLQADFIGVVRNNEALARLSCAFKTENQTRQVVCDLGNPMKAGTQLLAGLRFSVHQQSEMDTSVKFDLQIQSSNLFDKVSPVVSHKVDLAVLAAVEIRGVSSPDHVFLPIPNWEHKENPETEEDVGPVVQHIYELRNNGPSSFSKAMLHLQWPYKYNNNTLLYILHYDIDGPMNCTSDMEINPLRIKISSLQTTEKNDTVAGQGERDHLITKRDLALSEGDIHTLGCGVAQCLKIVCQVGRLDRGKSAILYVKSLLWTETFMNKENQNHSYSLKSSASFNVIEFPYKNLPIEDITNSTLVTTNVTWGIQPAPMPV chain 2: GPNICTTRGVSSCQQCLAVSPMCAWCSDEALPLGSPRCDLKENLLKDNCAPESIEFPVSEARVLEDRPLSDKGSGDSSQVTQVSPQRIALRLRPDDSKNFSIQVRQVEDYPVDIYYLMDLSYSMKDDLWSIQNLGTKLATQMRKLTSNLRIGFGAFVDKPVSPYMYISPPEALENPCYDMKTTCLPMFGYKHVLTLTDQVTRFNEEVKKQSVSRNRDAPEGGFDAIMQATVCDEKIGWRNDASHLLVFTTDAKTHIALDGRLAGIVQPNDGQCHVGSDNHYSASTTMDYPSLGLMTEKLSQKNINLIFAVTENVVNLYQNYSELIPGTTVGVLSMDSSNVLQLIVDAYGKIRSKVELEVRDLPEELSLSFNATCLNNEVIPGLKSCMGLKIGDTVSFSIEAKVRGCPQEKEKSFTIKPVGFKDSLIVQVTFDCDCACQAQAEPNSHRCNNGNGTFECGVCRCGPGWLGSQCECSEEDYRPSQQDECSPREGQPVCSQRGECLCGQCVCHSSDFGKITGKYCECDDFSCVRYKGEMCSGHGQCSCGDCLCDSDWTGYYCNCTTRTDTCMSSNGLLCSGRGKCECGSCVCIQPGSYGDTCEKCPTCPDACTFKKECVECKKFDRGALHDENTCNRYCRDEIESVKELKDTGKDAVNCTYKNEDDCVVRFQYYEDSSGKSILYVVEEPECPKGPD",binding result,binds
"recombinant integrin αvβ5 (receptor, human, integrin αv subunit, human, extracellular domain; integrin β5 subunit, human, extracellular domain; cDNA amplified from RNA of T98G human glioblastoma cells; truncated soluble heterodimer; Purification on ANTI-FLAG gel implies a FLAG tag) chain 1: FNLDVDSPAEYSGPEGSYFGFAVDFFVPSASSRMFLLVGAPKANTTQPGIVEGGQVLKCDWSSTRRCQPIEFDATGNRDYAKDDPLEFKSHQWFGASVRSKQDKILACAPLYHWRTEMKQEREPVGTCFLQDGTKTVEYAPCRSQDIDADGQGFCQGGFSIDFTKADRVLLGGPGSFYWQGQLISDQVAEIVSKYDPNVYSIKYNNQLATRTAQAIFDDSYLGYSVAVGDFNGDGIDDFVSGVPRAARTLGMVYIYDGKNMSSLYNFTGEQMAAYFGFSVAATDINGDDYADVFIGAPLFMDRGSDGKLQEVGQVSVSLQRASGDFQTTKLNGFEVFARFGSAIAPLGDLDQDGFNDIAIAAPYGGEDKKGIVYIFNGRSTGLNAVPSQILEGQWAARSMPPSFGYSMKGATDIDKNGYPDLIVGAFGVDRAILYRARPVITVNAGLEVYPSILNQDNKTCSLPGTALKVSCFNVRFCLKADGKGVLPRKLNFQVELLLDKLKQKGAIRRALFLYSRSPSHSKNMTISRGGLMQCEELIAYLRDESEFRDKLTPITIFMEYRLDYRTAADTTGLQPILNQFTPANISRQAHILLDCGEDNVCKPKLEVSVDSDQKKIYIGDDNPLTLIVKAQNQGEGAYEAELIVSIPLQADFIGVVRNNEALARLSCAFKTENQTRQVVCDLGNPMKAGTQLLAGLRFSVHQQSEMDTSVKFDLQIQSSNLFDKVSPVVSHKVDLAVLAAVEIRGVSSPDHVFLPIPNWEHKENPETEEDVGPVVQHIYELRNNGPSSFSKAMLHLQWPYKYNNNTLLYILHYDIDGPMNCTSDMEINPLRIKISSLQTTEKNDTVAGQGERDHLITKRDLALSEGDIHTLGCGVAQCLKIVCQVGRLDRGKSAILYVKSLLWTETFMNKENQNHSYSLKSSASFNVIEFPYKNLPIEDITNSTLVTTNVTWGIQPAPMPV chain 2: GLNICTSGSATSCEECLLIHPKCAWCSKEDFGSPRSITSRCDLRANLVKNGCGGEIESPASSFHVLRSLPLSSKGSGSAGWDVIQMTPQEIAVNLRPGDKTTFQLQVRQVEDYPVDLYYLMDLSLSMKDDLDNIRSLGTKLAEEMRKLTSNFRLGFGSFVDKDISPFSYTAPRYQTNPCIGYKLFPNCVPSFGFRHLLPLTDRVDSFNEEVRKQRVSRNRDAPEGGFDAVLQAAVCKEKIGWRKDALHLLVFTTDDVPHIALDGKLGGLVQPHDGQCHLNEANEYTASNQMDYPSLALLGEKLAENNINLIFAVTKNHYMLYKNFTALIPGTTVEILDGDSKNIIQLIINAYNSIRSKVELSVWDQPEDLNLFFTATCQDGVSYPGQRKCEGLKIGDTASFEVSLEARSCPSRHTEHVFALRPVGFRDSLEVGVTYNCTCGCSVGLEPNSARCNGSGTYVCGLCECSPGYLGTRCECQDGENQSVYQNLCREAEGKPLCSGRGDCSCNQCSCFESEFGKIYGPFCECDNFSCARNKGVLCSGHGECHCGECKCHAGYIGDNCNCSTDISTCRGRDGQICSERGHCLCGQCQCTEPGAFGEMCEKCPTCPDACSTKRDCVECLLLHSGKPDNQTCHSLCRDEVITWVDTIVKDDQEAVLCFYKTAKDCVMMFTYVELPSGKSNLTVLREPECGNTPN",binding result,binds
